This note sets out measurements from PMC7515726.

Common to all, as to assay: affinity purification with mass spectrometry
Experiment [1] addresses Nuc1, acidic patch mutant nucleosome (hH2A.Dx10), biotinylated 185 bp 601 DNA (human) (UniProt P62807).
Experiment [2] concerns the target Nuc2, disk patch 2 mutant nucleosome (hH2A.Dx2, hH2B.Cx8), biotinylated 185 bp 601 DNA (human) (UniProt Q71DI3).
Experiment [3] concerns the target Nuc3, disk patch 3 mutant nucleosome (hH3.2x10, hH4x24, hH2B.Cx9), biotinylated 185 bp 601 DNA (human) (UniProt P20671).

B1: OGT O-GlcNAc transferase (enzyme)
chain: MASSVGNVADSTEPTKRMLSFQGLAELAHREYQAGDFEAAERHCMQLWRQEPDNTGVLLLLSSIHFQCRRLDRSAHFSTLAIKQNPLLAEAYSNLGNVYKERGQLQEAIEHYRHALRLKPDFIDGYINLAAALVAAGDMEGAVQAYVSALQYNPDLYCVRSDLGNLLKALGRLEEAKACYLKAIETQPNFAVAWSNLGCVFNAQGEIWLAIHHFEKAVTLDPNFLDAYINLGNVLKEARIFDRAVAAYLRALSLSPNHAVVHGNLACVYYEQGLIDLAIDTYRRAIELQPHFPDAYCNLANALKEKGSVAEAEDCYNTALRLCPTHADSLNNLANIKREQGNIEEAVRLYRKALEVFPEFAAAHSNLASVLQQQGKLQEALMHYKEAIRISPTFADAYSNMGNTLKEMQDVQGALQCYTRAIQINPAFADAHSNLASIHKDSGNIPEAIASYRTALKLKPDFPDAYCNLAHCLQIVCDWTDYDERMKKLVSIVAEQLEKNRLPSVHPHHSMLYPLSHGFRKAIAERHGNLCLDKINVLHKPPYEHPKDLKLSDGRLRVGYVSSDFGNHPTSHLMQSIPGMHNPDKFEVFCYALSPDDGTNFRVKVMAEANHFIDLSQIPCNGKAADRIHQDGIHILVNMNGYTKGARNELFALRPAPIQAMWLGYPGTSGALFMDYIITDQETSPAEVAEQYSEKLAYMPHTFFIGDHANMFPHLKKKAVIDFKSNGHIYDNRIVLNGIDLKAFLDSLPDVKIVKMKCPDGGDNPDSSNTALNMPVIPMNTIAEAVIEMINRGQIQITINGFSISNGLATTQINNKAATGEEVPRTIIVTTRSQYGLPEDAIVYCNFNQLYKIDPSTLQMWANILKRVPNSVLWLLRFPAVGEPNIQQYAQNMGLPQNRIIFSPVAPKEEHVRRGQLADVCLDTPLCNGHTTGMDVLWAGTPMVTMPGETLASRVAASQLTCLGCLELIAKSRQEYEDIAVKLGTDLEYLKKIRGKVWKQRISSPLFNTKQYTMELERLYLQMWEHYAAGNKPDHMIKPVEVTESA
Take B1: the fold decrease in binding vs wild-type nucleosome in experiment [1] amounted to 1.69 fold.

B2: VRK1 kinase (enzyme)
chain: MPRVKAAQAGRPGPAKRRLAEQFAAGEVLTDMSRKEWKLGLPIGQGGFGCIYLADTNSSKPVGSDAPCVVKVEPSDNGPLFTELKFYQRAAKPEQIQKWIRTHKLKYLGVPKYWGSGLHDKNGKSYRFMIMDRFGSDLQKIYEANAKRFSRKTVLQLSLRILDILEYIHEHEYVHGDIKASNLLLSHKNPDQVYLVDYGLAYRYCPDGVHKEYKEDPKRCHDGTLEFTSIDAHKGVAPSRRGDLEILGYCMIQWLSGCLPWEDNLKDPNYVRDSKIRYRDNVAALMEKCFPEKNKPGEIAKYMESVKLLEYTEKPLYQNLRDILLQGLKAIGSKDDGKLDFSAVENGSVKTRPASKKRKKEAEESAVCAVEDMECSDTQVQEAAQTRSVESQGAIHGSMSQPAAGCSSSDSSRRQQHLGLEQDMLRLDRRGSRTRKKAQK
Take B2: the fold decrease in binding vs wild-type nucleosome in experiment [1] worked out at 1.61 fold.

B3: tyrosine-protein kinase BAZ1B (enzyme)
chain: MAPLLGRKPFPLVKPLPGEEPLFTIPHTQEAFRTREEYEARLERYSERIWTCKSTGSSQLTHKEAWEEEQEVAELLKEEFPNWYEKLVLEMVHHNTASLEKLVDSAWLEIMTKYAVGEECDFEVGKEKMLKVKIVKIHPLEKVDEEAVEKKSDGACDSPSSDKENSSQMAQDLQKKETVVKEDEGRRESINDRARRSPRKLPTSLKKGERKWAPPKFLPHKYDVKLQNEDKIISNVPADSLIRTERPPNKEILRYFIRHNALRAGTGENAPWVVEDELVKKYSLPSKFSDFLLDPYKYMTLNPSTKRRNTGSPDRKPSKKPKRDSSSLSSPLNPKLWCHVHLEKSLNGPPLKVKNSKNSKSPEEHLEGVMKIMSPNNNKLHSFHIPKKGPAAKKPGKHSDKPLKAKGRGKGILNGQKSTGNSKSPSKCVKTPKTKMKQMTLLDMAKGTQKMTRTPRSSGGVPRSSGKPHKHLPPAALHLIAYYKENKDKEDKKSALSCVISKTARLLSNEDRARLPEELRALVQKRYELLEHKKRWASMSEEQRKEYLKKKRQELKERLREKAKERREREMLERLEKQKRFEDQELGGRNLPAFRLVDTPEGLPNTLFGDVALVVEFLSCYSGLLLPDAQYPITAVSLMEALSADKGGFLYLNRVLVILLQTLLQDEIAEDYGELGMKLSEIPLTLHSVSELVRLCLRRCDVQEDSEGSETDDNKDSTPFEDNEVQDEFLEKLETSEFFELTSEEKLRILTALCHRILMTYSVQDHMETRQQVSAELWKERLAVLKEENDKKRAEKQKRKEMEARNKENGKEENVLGKVDRKKEIVKIEQQVEVEADDMISAVKSRRLLSMQAKRKREIQERETKVRLEREAEEERMRKHKAAAEKAFQEGIAKAKLVLRRTPIGTDRNHNRYWLFSNEVPGLFIEKGWVHNSIDYRFKHHRKDHSNLPDDDYCPRSKKANLGKNASVNAHHGPALEAVETTVPKQGQNLWFLCDSQKELDELLSCLHPQGIRESQLKERLEKRYQEITHSIYLARKPNLGLKSCDGNQELLNFLRSDLIEVATRLQKGGLGYMEGTSEFEARVISLEKLKDFGECVIALQASVIKKFLQGFMAPKQKKRKLQSEDSTKSEEVDEEKKMVEEAKVASALEKWKTAIREAQTFSRMHVLLGMLDACIKWDMSAENARCKVCRKKGEDDKLILCDECNKAFHLFCLRPALYEVPDGEWQCPACQPPTARRNSRGRNYTEESTSEGSEGDESGEEEEEEEEEEEEEEDYEVAGLRLRPRKTIRGKQSVIPAARPGRPPGKKSHPARRSRPKDDPEVDDLVLQTKRISRRQSLELQKCEDILHKLVKYRFSWPFREPVTRDEAEDYYDVIEHPMDFQTIQNKCSCGNYRSVQEFLTDMKQVFANAELYNCRGSHVLSCMEKTEQCLLALLQKHLPGHPYVRRKRRKFPDRLADDEGDSDSESVGQSRGRRQKK
The molecule B3 displayed a fold decrease in binding vs wild-type nucleosome in experiment [1] of 1.94 fold.

B4: RCC1 (regulator of chromatin condensation) (natural protein)
chain: MPPKRIAKRRSPPEDAIPKSKKVKVSHRSHNTEPGLVLTLGQGDVGQLGLGESVLERKKPALVPLLQDVVQAEAGGMHTVCLSQSGQVYSFGCNDEGALGRDTSVEGSEMVPGKVELQEKVVQVSAGDSHTAALTEDGRVFLWGSFRDNNGVIGLLEPMKKSMVPVQVQLDAPVVKVASGNDHLVMLTNDGDLYTLGCGEQGQLGRVPELFANRGGRQGLGRLLVPRCVLLKSRGTRGRVRFQDAFCGAYFTFAISREGHVYGFGLSNYHQLGTPGTGSCFIPQNLTSFKNSTKSWVGFSGGQHHTVCMDSEGKAYSLGRAEYGRLGLGEGAEEKSIPTLISRLPVVSSVACGASVGYAVSKDGRVFAWGMGTNYQLGTGQDEDAWSPVEMTGKQLENRVVLTVSSGGQHTVLLVKDQAQS
In the case of B4, the values for the fold decrease in binding vs wild-type nucleosome in experiment [1], in experiment [2] and in experiment [3] were 22 fold, 3.1 fold and 2.1 fold, respectively.

B5: cohesin complex protein SMC1A (natural protein)
chain: MGFLKLIEIENFKSYKGRQIIGPFQRFTAIIGPNGSGKSNLMDAISFVLGEKTSNLRVKTLRDLIHGAPVGKPAANRAFVSMVYSEEGAEDRTFARVIVGGSSEYKINNKVVQLHEYSEELEKLGILIKARNFLVFQGAVESIAMKNPKERTALFEEISRSGELAQEYDKRKKEMVKAEEDTQFNYHRKKNIAAERKEAKQEKEEADRYQRLKDEVVRAQVQLQLFKLYHNEVEIEKLNKELASKNKEIEKDKKRMDKVEDELKEKKKELGKMMREQQQIEKEIKEKDSELNQKRPQYIKAKENTSHKIKKLEAAKKSLQNAQKHYKKRKGDMDELEKEMLSVEKARQEFEERMEEESQSQGRDLTLEENQVKKYHRLKEEASKRAATLAQELEKFNRDQKADQDRLDLEERKKVETEAKIKQKLREIEENQKRIEKLEEYITTSKQSLEEQKKLEGELTEEVEMAKRRIDEINKELNQVMEQLGDARIDRQESSRQQRKAEIMESIKRLYPGSVYGRLIDLCQPTQKKYQIAVTKVLGKNMDAIIVDSEKTGRDCIQYIKEQRGEPETFLPLDYLEVKPTDEKLRELKGAKLVIDVIRYEPPHIKKALQYACGNALVCDNVEDARRIAFGGHQRHKTVALDGTLFQKSGVISGGASDLKAKARRWDEKAVDKLKEKKERLTEELKEQMKAKRKEAELRQVQSQAHGLQMRLKYSQSDLEQTKTRHLALNLQEKSKLESELANFGPRINDIKRIIQSREREMKDLKEKMNQVEDEVFEEFCREIGVRNIREFEEEKVKRQNEIAKKRLEFENQKTRLGIQLDFEKNQLKEDQDKVHMWEQTVKKDENEIEKLKKEEQRHMKIIDETMAQLQDLKNQHLAKKSEVNDKNHEMEEIRKKLGGANKEMTHLQKEVTAIETKLEQKRSDRHNLLQACKMQDIKLPLSKGTMDDISQEEGSSQGEESVSGSQRTSSIYAREALIEIDYGDLCEDLKDAQAEEEIKQEMNTLQQKLNEQQSVLQRIAAPNMKAMEKLESVRDKFQETSDEFEAARKRAKKAKQAFEQIKKERFDRFNACFESVATNIDEIYKALSRNSSAQAFLGPENPEEPYLDGINYNCVAPGKRFRPMDNLSGGEKTVAALALLFAIHSYKPAPFFVLDEIDAALDNTNIGKVANYIKEQSTCNFQAIVISLKEEFYTKAESLIGVYPEQGDCVISKVLTFDLTKYPDANPNPNEQ
In turn, B5 displayed a fold decrease in binding vs wild-type nucleosome in experiment [1] of 1.35 fold.
